By Km is commonly meant the concentration of substrate that gives half-maximal velocity. Broadly, the kcat is the maximal rate divided by the concentration of active sites. Broadly, the kcat/Km is the second-order rate constant that governs catalysis at low substrate concentration.

Holding throughout (format): biochemical
Substrate in data set [1]: CCCCNC(=O)C1=NNC(c2ccccn2)=NN1
Briefly: Oxidation of DHT by APEX2, UV-Vis initial rates and kinetic parameters. Particulars: pH 7.4, 25.0 °C. On the procedure: (§1) UV-Vis and fluorescence measurements were conducted in quartz cuvettes. All reactions were conducted in phosphate buffered saline (PBS) containing 100 μM EDTA with a pH=7.4. The PBS was prepared by adding 25 mM phosphate salts (Na2HPO4 and NaH2PO4), 100 mM NaCl, 100 μM EDTA to DI water. EDTA was added to quench free metals that can oxidize DHT. The buffer was pH adjusted to 7.4 using 1 mM HCl and 1 mM NaOH. UV experiments were stirred at 25° C. in a temperature-controlled cuvette holder of the spectrophotometer. Solutions of 15 or 16 were prepared from methanol stock solutions.
(§2) 15 or 16 (60 μM) from methanol stock solutions was added to PBS containing 100 μM EDTA. After 10s, APEX2 (SEQ ID NO:1) (275 nM) was dosed in and oxidation was monitored at 325 nm for 15 and 285 nm for 16 at 60s intervals (FIG. 10B-C).
(§3) 16 (15 μM) DHT from methanol stock solutions was added to PBS containing 100 μM EDTA. After 10s, APEX2 (SEQ ID NO:1) (275 nM) or HRP (15 nM) was dosed in and oxidation was monitored at 285 nm at 10s intervals (FIG. 10D)
(§4) SOD (1 μM) was added to PBS containing 100 μM EDTA. 15 or 16 (60 μM) was added from methanol stock solutions. After 10s, APEX2 (SEQ ID NO:1) or F41A APEX2 (275 nM) was dosed in and oxidation was monitored at 325 nm for 15 and 285 nm for 16 at 60s intervals.
(§5) The initial rate of oxidation was calculated from the first 100 seconds after APEX2 (SEQ ID NO:1) or F41A APEX2 was added ([…]). In the assays where SOD was added, SOD (1 μM) was added to PBS containing 100 μM EDTA and 15 or 16 was dosed in. 10 seconds later, APEX2 (SEQ ID NO:1) or F41A APEX2 ([…]) was added and the rate of oxidation was calculated from the first 100 seconds after APEX2 (SEQ ID NO:1) or F41A APEX2 ([…]) addition. The initial rate of oxidation was adjusted to background oxidation of DHT in PBS with 100 μM EDTA. Kinetic parameters (Table 2) were determined using GraphPad's Prism 6 software from the data presented below (Table 3-4).

Substrate in data set [2]: O=C(O)CCCC(=O)Nc1ccc(C2=NNC(c3ccccn3)=NN2)nc1
The description is as above. Particulars: pH 7.4, 25.0 °C. On the procedure: as §1, §2, §3, §4, §5

Substrate in data set [3]: CCCCNC(=O)C1=NNC(c2ccccn2)=NN1
Briefly: Oxidation of DHT by F41A APEX2, UV-Vis initial rates and kinetic parameters. Conditions: other: F41A APEX2 + SOD; pH 7.4; 25.0 °C. On the procedure: as §1, §4, §5

Substrate in data set [4]: O=C(O)CCCC(=O)Nc1ccc(C2=NNC(c3ccccn3)=NN2)nc1
The description is as above. Particulars: other: F41A APEX2 + SOD; pH 7.4; 25.0 °C. On the procedure:
as §1, §4, §5

Substrate in data set [5]: O=C(O)CCC(=O)Nc1ccc(C2=NNC(c3ccccn3)=NN2)nc1
Kind of data set: Horseradish peroxidase (HRP) catalyzed oxidation of DHTz to tetrazine. Conditions: other: HRP, peroxide-free, PBS containing EDTA (2.0 mM); pH 7.4; 25.0 °C. The protocol: Upon addition of horseradish peroxidase (15 nM) the UV-vis spectrum was monitored every 10 seconds. With 50% conversion after 100 seconds, complete conversion of 3a to 4a is observed after 600 seconds, as evidenced by the decrease in the absorption at 292 nm and increase at 325 nm with an isosbestic point at 303 nm. Similar spectral changes are observed when 3a is electrochemically oxidized to 4a in aqueous solution, or when the oxidation of 3a to 4a is photocatalyzed by methylene blue. […] Methylene blue was considered a particularly attractive sensitizer due to its clinical relevance, low molecular weight, low toxicity, high solubility, and an absorption spectrum (λmax 665 nm) that extends to the near IR. Further, methylene blue has previously been explored for applications in photodynamic therapy based on oxidation of indole-3-acetic acid. Rose bengal (λmax 550 nm), used in a range of biomedical applications, was also identified as an excellent sensitizer. […] Methylene blue (4 μM) also catalyzed the conversion of 3a to 4a in the presence of ambient light, with 47% conversion noted after 2 h. […] The mechanism of photooxidation more likely involves electron transfer and is the subject of ongoing study.
As a complement to these photocatalyzed reactions, the inventors observed that HRP can efficiently catalyze the oxidation of 3a in the dark at low enzyme concentration (15 nM) (FIG. 4). While HRP typically requires H2O2 as the terminal oxidant, the addition of HRP to a peroxide-free solution of 3a (30 μM) in PBS led to the rapid formation of 4a (FIG. 4, panel B). […]
Solutions (1 mL) containing 3a (30 μm) in PBS buffer were prepared in a cuvette from stock solutions. Oxidation of 3a to 4a was monitored by recording absorbance at 325 nm every 10 seconds while either hydrogen peroxide (2 mM), HRP (15 nM) or both were added (FIG. 4, panel B). […] The oxidation rate was determined by observing the conversion of 3a to 4a in the first 10 seconds after mixing in HRP (15 nM) and subtracting the background oxidation prior to the addition of HRP.

Setting [6] is: other: APEX2 (SEQ ID NO: 1) + SOD.
The mark [7] stands for this setting: other: APEX2 (SEQ ID NO: 1), no SOD.

B1: APEX2 (SEQ ID NO:1) (Glycine max; A134P/E112K/K14D/W41F) (protein)
chain: MGKSYPTVSADYQDAVEKAKKKLRGFIAEKRCAPLMLRLAFHSAGTFDKGTKTGGPFGTIKHPAELAHSANNGLDIAVRLLEPLKAEFPILSYADFYQLAGVVAVEVTGGPKVPFHPGREDKPEPPPEGRLPDPTKGSDHLRDVFGKAMGLTDQDIVALSGGHTIGAAHKERSGFEGPWTSNPLIFDNSYFTELLSGEKEGLLQLPSDKALLSDPVFRPLVDKYAADEDAFFADYAEAHQKLSELGFADA
Regarding B1, the Km in data set [1] (setting [6]) came out at 17.29 µM; in data set [1] (setting [7]) it was 22.61 µM; in data set [2] (setting [6]) it was 41.41 µM; in data set [2] (setting [7]) it was 47.56 µM. The kcat in data set [1] (setting [6]) was 0.115 s⁻¹; in data set [1] (setting [7]), 0.077 s⁻¹; in data set [2] (setting [6]), 0.247 s⁻¹; in data set [2] (setting [7]) it was 0.197 s⁻¹. Besides, the kcat/Km in data set [1] (setting [6]) stood at 6662 M⁻¹ s⁻¹; in data set [1] (setting [7]), 3426 M⁻¹ s⁻¹; in data set [2] (setting [6]), 5956 M⁻¹ s⁻¹; in data set [2] (setting [7]), 4134 M⁻¹ s⁻¹.

B2: F41A APEX2 (Glycine max; A134P/E112K/K14D/W41A) (protein)
chain: MGKSYPTVSADYQDAVEKAKKKLRGFIAEKRCAPLMLRLAAHSAGTFDKGTKTGGPFGTIKHPAELAHSANNGLDIAVRLLEPLKAEFPILSYADFYQLAGVVAVEVTGGPKVPFHPGREDKPEPPPEGRLPDPTKGSDHLRDVFGKAMGLTDQDIVALSGGHTIGAAHKERSGFEGPWTSNPLIFDNSYFTELLSGEKEGLLQLPSDKALLSDPVFRPLVDKYAADEDAFFADYAEAHQKLSELGFADA
Turning to B2, in data set [3], the Km was 104.6 µM, the kcat came to 0.408 s⁻¹ and the kcat/Km was 3900 M⁻¹ s⁻¹. Moreover, in data set [4], the Km is 263 µM, the kcat is 1.72 s⁻¹ and the kcat/Km amounted to 6533 M⁻¹ s⁻¹.

B3: horseradish peroxidase (HRP) (Armoracia rusticana) (protein)
chain: QLTPTFYDNSCPNVSNIVRDTIVNELRSDPRIAASILRLHFHDCFVNGCDASILLDNTTSFRTEKDAFGNANSARGFPVIDRMKAAVESACPRTVSCADLLTIAAQQSVTLAGGPSWRVPLGRRDSLQAFLDLANANLPAPFFTLPQLKDSFRNVGLNRSSDLVALSGGHTFGKNQCRFIMDRLYNFSNTGLPDPTLNTTYLQTLRGLCPLNGNLSALVDFDLRTPTIFDNKYYVNLEEQKGLIQSDQELFSSPNATDTIPLVRSFANSTQTFFNAFVEAMDRMGNITPLTGTQGQIRLNCRVVNSNS
Regarding B3, in data set [5], the Km came to 100 µM, the kcat turned out to be 27 s⁻¹ and the kcat/Km came out at 270000 M⁻¹ s⁻¹.

For the origin of these results see patent US11485987B2, “Methods for inducing bioorthogonal reactivity” (University of Delaware, priority 2015, dated 2022).
